In patent publication US20030129186A1 (published 2003):

Key:
[1] = target: T1, p97 receptor (melanotransferrin receptor, MTf-R) on bovine brain capillary endothelial cells (BBCECs) (bovine); experiment: cell-based or functional assay
[2] = target: p97 receptor on isolated human brain capillaries (human); experiment: cell-based or functional assay
[3] = target: T1, p97 receptor (melanotransferrin …); experiment: [125I]-p97 (25 nM) binding to BBCECs, 2 h at 4 C, with or without saponin
[4] = target: T1, p97 receptor (melanotransferrin …); experiment: Scatchard plot of specific [125I]-p97 binding to saponin-treated BBCECs (FIG. 12c)
[5] = target: T1, p97 receptor (melanotransferrin …); experiment: Scatchard analysis of [125I]-p97 binding to saponin-permeabilized BBCEC monolayers at 4 C, displaced by unlabelled p97

B1: recombinant human melanotransferrin (p97) (ligand, UniProt P08582 20-709, looked up)
chain: GMEVRWCATSDPEQHKCGNMSEAFREAGIQPSLLCVRGTSADHCVQLIAAQEADAITLDGGAIYEAGKEHGLKPVVGEVYDQEVGTSYYAVAVVRRSSHVTIDTLKGVKSCHTGINRTVGWNVPVGYLVESGRLSVMGCDVLKAVSDYFGGSCVPGAGETSYSESLCRLCRGDSSGEGVCDKSPLERYYDYSGAFRCLAEGAGDVAFVKHSTVLENTDGKTLPSWGQALLSQDFELLCRDGSRADVTEWRQCHLARVPAHAVVVRADTDGGLIFRLLNEGQRLFSHEGSSFQMFSSEAYGQKDLLFKDSTSELVPIATQTYEAWLGHEYLHAMKGLLCDPNRLPPYLRWCVLSTPEIQKCGDMAVAFRRQRLKPEIQCVSAKSPQHCMERIQAEQVDAVTLSGEDIYTAGKTYGLVPAAGEHYAPEDSSNSYYVVAVVRRDSSHAFTLDELRGKRSCHAGFGSPAGWDVPVGALIQRGFIRPKDCDVLTAVSEFFNASCVPVNNPKNYPSSLCALCVGDEQGRNKCVGNSQERYYGYRGAFRCLVENAGDVAFVRHTTVFDNTNGHNSEPWAAELRSEDYELLCPNGARAEVSQFAACNLAQIPPHAVMVRPDTNIFTVYGLLDKAQDLFGDDHNKNGFKMFDSSNYHGQDLLFKDATVRAVPVGEKTTYRGWLGLDYVAALEGMSSQQC
notes: also called MTf
decrease in apical-to-basal transport of [125I]-p97 (25 nM) across BBCEC monolayers with a 200-fold molar excess of unlabelled p97 [1]: 69%
decrease in uptake of [125I]-p97 (100 nM) into isolated human brain capillaries, 1 h at 37 C, with a 50-fold molar excess of unlabelled p97 [2]: 60%
fold increase of [125I]-p97 associated with cells after saponin permeabilization (against untreated cells) [3]: 4 fold
Kd [4]: ~1000 nM
Kd [5]: 1400 nM
